According to publication PMC3432581 (Methods in molecular biology (Clifton, N.J.), 2011):

Target: the molecule itself
Assay: FRET or BRET

B1: CCAAT/Enhancer Binding Protein α (C/EBPα) (natural protein, UniProt P05554 244-358, looked up)
chain: GPGGSLKGLAGPHPDLRTGGGGGGGAGAGKAKKSVDKNSNEYRVRRERNNIAVRKSRDKAKQRNVETQQKVLELTSDNDRLRKRVEQLSRELDTLRGIFRQLPESSLVKAMGNCA
**Q.** With B1 as the protein, how does the “BRET ratio (Y ÷ B)” value read?
**A.** 0.39
